Assay results from PMC5046105, “Improved affinity at the cost of decreased specificity: a recurring theme in PDZ-peptide interactions” (Scientific Reports, 2016).
Numbering of substitutions follows the chain as printed. Each block holds one molecule with its values, some of them ahead of it. Ends that are not written are not given here.

Columns and labels:
[1] = molecular target: T1, pWT PDZ2 K392M (Homo sapiens, UniProt Q12959, C378A/I342W/K392M); test: Stopped-flow binding kinetics, peptide with pWT PDZ2 K392M; settings: for Kd: Kd = koff/kon, ± propagated standard error; for Kd / koff: pH 7.5, 10 °C; for kon: Trp342 fluorescence, 1 µM PDZ, peptide 2–40 µM, N-acetylated peptide, 50 mM potassium phosphate pH 7.5, 10 °C, value ± standard error (EKKHTLL: mean of two experiments); for koff: displacement of pre-formed complex (1 µM PDZ, 2 µM peptide) with 100 and 150 µM dansylated RRRETQV peptide, value ± standard error
T1 construct: constituting SAP97 residues 311–407 and the mutations I342W and C372A; His-tagged lipoyl protein domain (N, cleaved yes); made in house
T1 sequence (Q12959 311-407 I342W/C378A/K392M): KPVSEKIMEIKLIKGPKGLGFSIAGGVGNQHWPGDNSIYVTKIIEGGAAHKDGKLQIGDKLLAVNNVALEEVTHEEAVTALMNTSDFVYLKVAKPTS
Method: (§1) The basic experimental parameters determined were the rate constants of association (kon) and dissociation (koff) for each peptide and for all PDZ variants, respectively, in a procedure described in Fig. 2 for the interaction between PDZØ9 and the EKKHTLL peptide as an example.
(§2) Figure 2 Determination of the two rate constants kon and koff for PDZØ9 binding to the EKKHTLL peptide. kon and koff were determined in separate experiments using stopped-flow spectroscopy and monitoring the change in Trp fluorescence upon binding. (a) The experimental trace was obtained by averaging of three individual experiments in which 11 μM of the EKKHTLL peptide was mixed with 1 μM PDZØ9. The trace was fitted to a single exponential function to obtain the observed rate constant, kobs. […] (c) In a displacement reaction a pre-formed complex between PDZØ9 (1 μM) and the EKKHTLL peptide (2 μM) was mixed with a large excess of dansyl-labeled peptide corresponding to the C-terminal […] of HPV18 E6 (150 μM). […] At high concentrations of dansylated peptide, none of the dissociated EKKHTLL will re-bind, and fitting to a single exponential function returns a kobs value which is equal to the dissociation rate constant, koff, of the pre-formed complex.
(§3) All of the stopped-flow experiments conducted in order to measure the rate constants for the peptide/PDZ interactions, were performed on an SX-20 MV stopped-flow spectrometer (Applied Photophysics Leatherhead, UK) at 10 °C in 50 mM potassium phosphate buffer, pH 7.5. Fluorescence was monitored using the change in emission of Trp342 in the PDZ variants (excitation at 280 nm; emission at 330 ± 30 nm). The peptides were N-acetylated (Ontores Biotechnologies) and the concentration of the respective stock solution was determined with either absorbance, quantitative amino acid analysis or direct detect (EMD Millipore). The rate constants of association, kon, and dissociation, koff, were determined in separate experiments. […] For each PDZ variant the kobs values were plotted versus the concentration of peptide and fitted to the general equation for a reversible bimolecular interaction[38][39] from which kon was derived. The koff was measured in a displacement experiment in which a pre-formed complex of PDZ variant (1 μM) and peptide (2 μM) was mixed with high concentrations of a dansylated RRRETQV-peptide (100, and 150 μM), which competes with the unlabelled peptide for binding to the PDZ. […] The kobs value at high peptide concentration is equal to the overall koff value, as described previously.

[2] = molecular target: T2, pWT PDZ2 L391F (Homo sapiens, UniProt Q12959, C378A/I342W/L391F); test: Stopped-flow binding kinetics, peptide with pWT PDZ2 L391F; settings: for Kd: Kd = koff/kon, ± propagated standard error; for Kd / koff: pH 7.5, 10 °C; for kon: Trp342 fluorescence, 1 µM PDZ, peptide 2–40 µM, N-acetylated peptide, 50 mM potassium phosphate pH 7.5, 10 °C; for kon / koff: value ± standard error; for koff: displacement of pre-formed complex (1 µM PDZ, 2 µM peptide) with 100 and 150 µM dansylated RRRETQV peptide
T2 construct: constituting SAP97 residues 311–407 and the mutations I342W and C372A; His-tagged lipoyl protein domain (N, cleaved yes); made in house
T2 sequence (Q12959 311-407 I342W/C378A/L391F): T1 sequence (Q12959 311-407 I342W/C378A/K392M) with L81F, M82K
Method: as §1, §2, §3

[3] = molecular target: T3, pWT PDZ2 (pseudo wild type SAP97 PDZ2, I342W/C378A) (Homo sapiens, UniProt Q12959, C378A/I342W); test: Stopped-flow binding kinetics, peptide with pWT PDZ2; settings: for Kd: Kd = koff/kon, ± propagated standard error; for Kd / koff: pH 7.5, 10 °C; for kon: Trp342 fluorescence, 1 µM PDZ, peptide 2–40 µM, N-acetylated peptide, 50 mM potassium phosphate pH 7.5, 10 °C; for kon / koff: value ± standard error; for koff: displacement of pre-formed complex (1 µM PDZ, 2 µM peptide) with 100 and 150 µM dansylated RRRETQV peptide
T3 construct: constituting SAP97 residues 311–407 and the mutations I342W and C372A; His-tagged lipoyl protein domain (N, cleaved yes); made in house
T3 sequence (Q12959 311-407 I342W/C378A): T1 sequence (Q12959 311-407 I342W/C378A/K392M) with M82K
Method: as §1, §2, §3

[4] = molecular target: T4, PDZØ9 (pWT SAP97 PDZ2 L391F/K392M) (Homo sapiens, UniProt Q12959, C378A/I342W/K392M/L391F); test: Stopped-flow binding kinetics, peptide with PDZØ9; settings: stopped-flow; for Kd: Kd = koff/kon, ± propagated standard error; for Kd / koff: pH 7.5, 10 °C; for koff: displacement of pre-formed complex (1 µM PDZ, 2 µM peptide) with 100 and 150 µM dansylated RRRETQV peptide; for koff / kon: value ± standard error; for kon: Trp342 fluorescence, 1 µM PDZ, peptide 2–40 µM, N-acetylated peptide, 50 mM potassium phosphate pH 7.5, 10 °C
T4 construct: constituting SAP97 residues 311–407 and the mutations I342W and C372A; His-tagged lipoyl protein domain (N, cleaved yes); made in house
T4 sequence (Q12959 311-407 I342W/C378A/L391F/K392M): T1 sequence (Q12959 311-407 I342W/C378A/K392M) with L81F
Method: as §1, §2, §3

[5] = molecular target: pWT PDZ2 K392M (human) (UniProt Q12959); test: stopped-flow spectroscopy
[6] = molecular target: Pseudo wild type SAP97 PDZ2 (second PDZ domain of synapse associated protein 97, I342W/C378A) (human) (UniProt Q12959); test: stopped-flow spectroscopy
[7] = molecular target: PDZØ9, engineered variant (L391F/K392M) of pWT SAP97 PDZ2 (human) (UniProt Q12959); test: stopped-flow spectroscopy
[8] = molecular target: pWT PDZ2 L391F (human) (UniProt Q12959); test: stopped-flow spectroscopy
pWT PDZ2 L391F (human), sequence (Q12959 311-407, stated change not applied): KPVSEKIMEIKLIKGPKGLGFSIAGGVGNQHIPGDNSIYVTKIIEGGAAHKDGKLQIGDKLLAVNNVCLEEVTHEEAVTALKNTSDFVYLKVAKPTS

Pseudo wild type SAP97 PDZ2 (second PDZ domain of synapse associated protein 97, I342W/C378A) (human), sequence (Q12959 311-407, stated change not applied): as the sequence (Q12959 311-407, stated change not applied) above
PDZØ9, engineered variant (L391F/K392M) of pWT SAP97 PDZ2 (human), sequence (Q12959 311-407, stated change not applied): as the sequence (Q12959 311-407, stated change not applied) above

koff [5]: 31 s⁻¹
kon [5]: 1.7e+07 M⁻¹ s⁻¹
koff [6]: 26 s⁻¹
kon [6]: 2.1e+07 M⁻¹ s⁻¹
koff [7]: 4.3 s⁻¹
kon [7]: 1.7e+07 M⁻¹ s⁻¹
koff [8]: 4.3 s⁻¹
kon [8]: 2.4e+07 M⁻¹ s⁻¹
B1: RSISTDV peptide (C-terminus of protein FAM163B) (peptide)
peptide: Ac-RSISTDV

koff [5]: 7.7 s⁻¹
kon [5]: 9.7e+06 M⁻¹ s⁻¹
koff [6]: 8.6 s⁻¹
kon [6]: 1.3e+07 M⁻¹ s⁻¹
koff [7]: 1.6 s⁻¹
kon [7]: 1e+07 M⁻¹ s⁻¹
koff [8]: 1.9 s⁻¹
kon [8]: 1.3e+07 M⁻¹ s⁻¹
B3: NSKETVV peptide (C-terminus of E3 ubiquitin-protein ligase MARCH3) (peptide)
peptide: Ac-NSKETVV

koff [5]: 105 s⁻¹
kon [5]: 2.5e+07 M⁻¹ s⁻¹
koff [6]: 87 s⁻¹
kon [6]: 1.9e+07 M⁻¹ s⁻¹
koff [7]: 17 s⁻¹
kon [7]: 2.2e+07 M⁻¹ s⁻¹
koff [8]: 15 s⁻¹
kon [8]: 1.9e+07 M⁻¹ s⁻¹
B4: YRRESAI peptide (C-terminus of inward rectifier potassium channel 4, Kir2.3) (peptide)
peptide: Ac-YRRESAI

koff [5]: 150 s⁻¹
kon [5]: 2.4e+07 M⁻¹ s⁻¹
koff [6]: 154 s⁻¹
kon [6]: 4e+07 M⁻¹ s⁻¹
koff [7]: 6.3 s⁻¹
kon [7]: 8.4e+06 M⁻¹ s⁻¹
koff [8]: 8.8 s⁻¹
kon [8]: 1.1e+07 M⁻¹ s⁻¹
B5: VSKETPL peptide (C-terminus of mitogen-activated protein kinase 12, p38γ) (peptide)
peptide: Ac-VSKETPL

koff [5]: 25 s⁻¹
kon [5]: 1.2e+07 M⁻¹ s⁻¹
koff [6]: 26 s⁻¹
kon [6]: 1.6e+07 M⁻¹ s⁻¹
koff [7]: 3.4 s⁻¹
kon [7]: 1.3e+07 M⁻¹ s⁻¹
koff [8]: 4 s⁻¹
kon [8]: 1.8e+07 M⁻¹ s⁻¹
B7: SARSTDV peptide (C-terminus of anoctamin-9) (peptide)
peptide: SARSTDV

Second part, the molecule before the results:

Molecule: Ac-VSKETPL [VSKETPL]
Kd [1]: 6.3 ± 0.6 µM
kon [1]: 2.4e+07 ± 2.2e+06 M⁻¹ s⁻¹
koff [1]: 150 ± 3 s⁻¹
Kd [2]: 800 ± 20 nM
kon [2]: 1.1e+07 ± 100000 M⁻¹ s⁻¹
koff [2]: 8.8 ± 0.2 s⁻¹
Kd [3]: 3.9 ± 0.2 µM
kon [3]: 4e+07 ± 2.2e+06 M⁻¹ s⁻¹
koff [3]: 154 ± 3 s⁻¹
Kd [4]: 750 ± 20 nM
koff [4]: 6.3 ± 0.2 s⁻¹
kon [4]: 8.4e+06 ± 60000 M⁻¹ s⁻¹

Molecule: Ac-EKKHTLL [EKKHTLL]
Kd [1]: 14 ± 2 µM
kon [1]: 1.1e+07 ± 1.7e+06 M⁻¹ s⁻¹
koff [1]: 157 ± 2 s⁻¹
Kd [2]: 650 ± 7 nM
kon [2]: 1.1e+07 ± 80000 M⁻¹ s⁻¹
koff [2]: 7.1 ± 0.05 s⁻¹
Kd [3]: 9.3 ± 0.4 µM
kon [3]: 1.2e+07 ± 500000 M⁻¹ s⁻¹
koff [3]: 112 ± 1.2 s⁻¹
Kd [4]: 560 ± 5 nM
koff [4]: 7.9 ± 0.04 s⁻¹
kon [4]: 1.4e+07 ± 100000 M⁻¹ s⁻¹

B2: EKKHTLL peptide (C-terminus of E9PN86_HUMAN, partial transcript of EIF3M_HUMAN) (peptide)
peptide: Ac-EKKHTLL
koff [5]: 157 s⁻¹
kon [5]: 1.1e+07 M⁻¹ s⁻¹
koff [6]: 112 s⁻¹
kon [6]: 1.2e+07 M⁻¹ s⁻¹
koff [7]: 7.9 s⁻¹
kon [7]: 1.4e+07 M⁻¹ s⁻¹
koff [8]: 7.1 s⁻¹
kon [8]: 1.1e+07 M⁻¹ s⁻¹

B6: TSRETDL peptide (C-terminus of potassium voltage-gated channel subfamily A member 5, Kv1.5) (peptide)
peptide: Ac-TSRETDL
koff [5]: 62 s⁻¹
kon [5]: 1.5e+07 M⁻¹ s⁻¹
koff [6]: 71 s⁻¹
kon [6]: 3.3e+07 M⁻¹ s⁻¹
koff [7]: 2.6 s⁻¹
kon [7]: 1.5e+07 M⁻¹ s⁻¹
koff [8]: 3.8 s⁻¹
kon [8]: 1.8e+07 M⁻¹ s⁻¹

B8: KRKETLV peptide (C-terminus of neuroepithelial cell-transforming gene 1 protein, Net1) (peptide)
peptide: Ac-KRKETLV
Kd [5]: 470 nM
koff [5]: 3.4 s⁻¹
kon [5]: 7.2e+06 M⁻¹ s⁻¹
Kd [6]: 470 nM
koff [6]: 3 s⁻¹
kon [6]: 6.4e+06 M⁻¹ s⁻¹
Kd [7]: 80 nM
koff [7]: 0.6 s⁻¹
kon [7]: 8e+06 M⁻¹ s⁻¹
Kd [8]: 80 nM
koff [8]: 0.6 s⁻¹
kon [8]: 7.4e+06 M⁻¹ s⁻¹
